Molecular target: HIV-1 integrase Q214C/Q221C double mutant, in virions (HIV-1)
Test: cross-linking

Substance “HIV-1 integrase Q214C/Q221C double mutant, in virions (enzyme)” has a fold increase of the dimer percentage over WT of 3 fold and a stoichiometry N of 2.

Source: PMC6775779
